Where no end group is shown, it is not given here. The star is where a group is joined. Biotin = O=C1N[C@H]2[C@H](CS[C@H]2CCCCC(=O)*)N1
How the values were obtained:
[1] = target: T1, Peptide 2, non-conjugated (GSESTSSMED-C) (human); assay: ELISA; Ab 0.25 ug/mL; repI
T1 construct: With the extra C-terminal Cys
T1 peptide: GSESTSSMEDC
Procedure: (§1) In brief, plates with each non-conjugated peptide (50 μg/mL) or BSA-conjugated peptide (5 μg/mL) were coated in 0.58M carbonate-bicarbonate buffer pH9.5, 100 μL/well, at 4° C. […] After washing, wells were incubated with the 3, 3′,5,5′-Tetramethylbenzidine (TMB) HRP substrate and reactions were stopped with 2M HCl and OD450 was recorded.

[2] = target: T2, Peptide 3, non-conjugated (SSMEDYVNFN-C) (human); assay: ELISA; Ab 0.25 ug/mL; repI
T2 construct: With the extra C-terminal Cys
T2 peptide: SSMEDYVNFNC
Procedure: as §1

[3] = target: T3, Peptide 3-BSA (SSMEDYVNFN-C conjugated to BSA) (human); assay: ELISA; Ab 0.5 ug/mL; repII
T3 peptide: SSMEDYVNFNC(BSA)
Procedure: as §1

[4] = target: T4, Peptide 4-BSA (SMEDYVNFNF-C conjugated to BSA) (human); assay: ELISA; Ab 0.5 ug/mL; repII
T4 peptide: SMEDYVNFNFC(BSA)
Procedure: as §1

[5] = target: T5, Peptide 1, non-conjugated (MADDYGSEST-C) (human); assay: ELISA; Ab 0.5 ug/mL; repII
T5 construct: With the extra C-terminal Cys
T5 peptide: MADDYGSESTC
Procedure: as §1

[6] = target: T1, Peptide 2, non-conjugated (GSESTSSMED-C); assay: ELISA; Ab 0.5 ug/mL; repII
Procedure: as §1

[7] = target: T2, Peptide 3, non-conjugated (SSMEDYVNFN-C); assay: ELISA; Ab 0.5 ug/mL; repII
Procedure: as §1

[8] = target: T6, Peptide 4, non-conjugated (SMEDYVNFNF-C) (human); assay: ELISA; Ab 0.5 ug/mL; repII
T6 construct: With the extra C-terminal Cys
T6 peptide: SMEDYVNFNFC
Procedure: as §1

[9] = target: T7, BSA (negative control coating) (bovine, UniProt P02769 25-607); assay: ELISA; Ab 0.5 ug/mL; repII
T7 construct: also called Negative control BSA
Procedure: as §1

[10] = target: T8, antigen peptide-BSA (immunisation peptide #1 MADDYGSESTSSMEDYVNFNF-C conjugated to BSA) (human, extra C-terminal Cys conjugated to BSA); assay: ELISA; Ab 0.5 ug/mL; repII
T8 construct: also called Positive control antigen peptide-BSA; MADDY peptide
T8 peptide: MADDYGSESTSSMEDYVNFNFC
Procedure: as §1

[11] = target: T9, Peptide 1-BSA (MADDYGSEST-C conjugated to BSA) (human); assay: ELISA; Ab 0.5 ug/mL; repII
T9 peptide: MADDYGSESTC(BSA)
Procedure: as §1

[12] = target: T10, Peptide 2-BSA (GSESTSSMED-C conjugated to BSA) (human); assay: ELISA; Ab 0.5 ug/mL; repII
T10 peptide: GSESTSSMEDC(BSA)
Procedure: as §1

[13] = target: T3, Peptide 3-BSA (SSMEDYVNFN-C conjugated …); assay: ELISA; Ab 0.0625 ug/mL; repII
Procedure: as §1

[14] = target: T4, Peptide 4-BSA (SMEDYVNFNF-C conjugated …); assay: ELISA; Ab 0.0625 ug/mL; repII
Procedure: as §1

[15] = target: T1, Peptide 2, non-conjugated (GSESTSSMED-C); assay: ELISA; Ab 0.0625 ug/mL; repII
Procedure: as §1

[16] = target: T6, Peptide 4, non-conjugated (SMEDYVNFNF-C); assay: ELISA; Ab 0.0625 ug/mL; repII
Procedure: as §1

[17] = target: T7, BSA (negative control coating); assay: ELISA; Ab 0.0625 ug/mL; repII
Procedure: as §1

[18] = target: T10, Peptide 2-BSA (GSESTSSMED-C conjugated …); assay: ELISA; Ab 0.0625 ug/mL; repII
Procedure: as §1

[19] = target: T11, biotin-peptide TSSMEDYVNF (human); assay: ELISA biotin-peptide; scFv 10 ug/mL; repII
T11 peptide: Biotin-TSSMEDYVNF
Procedure: (§2) The peptides were synthesized naked or with a N-terminal Biotin modification with a purity of >98%. All four scFvs were verified by ELISA that can be detected with anti-His antibodies. ELISA was performed for scFv-peptide binding validation. Briefly, naked peptides were coated (50 μg/mL) in 0.58M carbonate-bicarbonate buffer pH9.5, 100 μL/well, 4° C. O/N. Then after blocking (3% BSA-PBS, 300 μL/well 37° C. 1.5 h) and washing (PBS+Tween-20 0.05% v/v (0.05% PBST), wells were incubated with each purified scFv antibody at concentration of 1 μg/mL in PBS at 37° C. 1 h. After washing (0.05% PBST), wells were incubated with secondary antibodies (goat anti-His IgG-HRP) in PBS, 37° C., 30 min. After washing, and incubation with TMB substrate, reactions were stopped with 2M HCl and reading was quantified at OD450.
(§3) ELISA with biotin-conjugated peptides (5 μg/mL) was performed very similar to described above with minor modifications.
(§4) A full curve ELISA was performed for each positive scFv/biotin-peptide pair in order to confirm previous results. Tables 15-17 show ELISA results of the dose-dependent full curve for each positive peptide with scFv “CCR9_HUM”, “Comp-2” and “Comp-3”, respectively.

[20] = target: T12, biotin-peptide SSMEDYVNFN (human); assay: ELISA biotin-peptide; scFv 10 ug/mL; repII
T12 peptide: Biotin-SSMEDYVNFN
Procedure: as §2, §3, §4

[21] = target: T13, biotin-peptide SMEDYVNFNF (human); assay: ELISA biotin-peptide; scFv 10 ug/mL; repII
T13 peptide: Biotin-SMEDYVNFNF
Procedure: as §2, §3, §4

[22] = target: T14, biotin-peptide MEDYVNFNFT (human); assay: ELISA biotin-peptide; scFv 10 ug/mL; repII
T14 peptide: Biotin-MEDYVNFNFT
Procedure: as §2, §3, §4

[23] = target: T11, biotin-peptide TSSMEDYVNF; assay: ELISA biotin-peptide; scFv 2.5 ug/mL; repI
Procedure: as §2, §3, §4

[24] = target: T12, biotin-peptide SSMEDYVNFN; assay: ELISA biotin-peptide; scFv 2.5 ug/mL; repI
Procedure: as §2, §3, §4

[25] = target: T13, biotin-peptide SMEDYVNFNF; assay: ELISA biotin-peptide; scFv 2.5 ug/mL; repI
Procedure: as §2, §3, §4

[26] = target: T14, biotin-peptide MEDYVNFNFT; assay: ELISA biotin-peptide; scFv 2.5 ug/mL; repI
Procedure: as §2, §3, §4

T7 sequence (P02769 25-607 limits assumed): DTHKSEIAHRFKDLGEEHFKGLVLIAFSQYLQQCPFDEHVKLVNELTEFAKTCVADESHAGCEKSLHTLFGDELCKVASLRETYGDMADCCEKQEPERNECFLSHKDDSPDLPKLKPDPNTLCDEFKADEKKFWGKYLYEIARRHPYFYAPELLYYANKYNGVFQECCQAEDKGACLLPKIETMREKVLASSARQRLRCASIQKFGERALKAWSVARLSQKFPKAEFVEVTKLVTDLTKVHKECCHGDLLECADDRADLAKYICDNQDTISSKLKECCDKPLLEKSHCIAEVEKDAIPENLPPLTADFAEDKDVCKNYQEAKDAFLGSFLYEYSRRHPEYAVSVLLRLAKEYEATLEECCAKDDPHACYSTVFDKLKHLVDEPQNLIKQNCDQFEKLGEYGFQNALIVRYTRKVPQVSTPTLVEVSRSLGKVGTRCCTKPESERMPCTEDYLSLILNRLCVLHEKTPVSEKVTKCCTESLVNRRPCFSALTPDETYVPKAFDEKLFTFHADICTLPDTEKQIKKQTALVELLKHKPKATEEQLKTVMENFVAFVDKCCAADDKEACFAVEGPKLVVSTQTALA

B1: anti-CCR9 antibody clone 115 (murine, from hybridoma #115) (antibody, V domains shown)
VH: QVQLKQSGPELVKPGTSVRVSCTASGYSFTDYIIYWVKQSHGRSLEWIGYIDPNNYNTRYSQKFKGKATLTVDKSSTSAFMHLNSLTSDDSAVYYCARDVYWGQGTTLTVSS
VL: DVVMTQTPLSLTVSLGDQASISCRSSQSLVHSNGKTYLQWYLQKPGQSPKLLIYKVSNRFSGVPDRFSGSGSGTDFTLKISRVEAEDLGVYFCAQSTHVWTFGGGTKLEIKR
notes: Mouse IgG1
OD450 [1]: 0.02 OD
OD450 [2]: 1.89 OD
OD450 [3]: 2.06 OD
OD450 [4]: 2.65 OD
OD450 [5]: 0.02 OD
OD450 [6]: 0.02 OD
OD450 [7]: 1.83 OD
OD450 [8]: 2.37 OD
OD450 [9]: 0.02 OD
OD450 [10]: 2.57 OD
OD450 [11]: 0.02 OD
OD450 [12]: 0.02 OD
OD450 [13]: 1.78 OD
OD450 [14]: 2.01 OD
OD450 [15]: 0.01 OD
OD450 [16]: 1.19 OD
OD450 [17]: 0.01 OD
OD450 [18]: 0.01 OD

B2: CCR9_HUM2 scFv (humanized anti-CCR9 scFv, SEQ ID NO: 17 with C-terminal 6xHis tag) (scFv)
scFv: QVQLVQSGAEVKKPGASVKVSCTASGYSFTDYIIYWVKQAHGQSLEWMGYIDPNNYNTRYSQKFQGKVTITVDKSSTSAYMELNSLTSDDTAVYYCARDVYWGQGTTVTVSSGGGGSGGGGSGGGGSGGGGSDVVMTQTPLSLSVTPGQPASISCRSSQSLVHSNGKTYLQWYLQKPGQSPKLLIYKVSNRFSGVPDRFSGSGSGTDFTLKISRVEAEDVGVYFCAQSTHVWTFGGGTKVEIKRAHHHHHH
OD450 [19]: 1.36 OD
OD450 [20]: 1.87 OD
OD450 [21]: 1.85 OD
OD450 [22]: 1.79 OD
OD450 [23]: 1.42 OD
OD450 [24]: 1.81 OD
OD450 [25]: 1.76 OD
OD450 [26]: 1.66 OD

Source: patent US20260232732A1 (FUNDACI INSTITUT DE RECERCA CONTRA LA LEUC MIA JOSEP …, published 2026)
